In patent US20120027684A1 (IMMATICS BIOTECHNOLOGIES, published 2012):

Biological target: HLA A*0201 (human)
Test: ELISA-based peptide-HLA binding method (Sylvester-Hvid et al., 2002)

binding result: binds
Binder: LLGATCMFV (also called cyclin peptide CCN-001) [CCN-001]
